Test: soluble on expression in E. coli; label from the status in PepcDB or PDB records

Sequence	soluble on expression in E. coli
ISDLHPQLQPLAETFLRLCRDQGVDPLLICTWRSSEEQAQLYRRGRDLPGAIVTYARPGESAHNATLHGNPAARAFDVVPLLAGKPICDIDHPHWQVMGR	not soluble
ISDPVELLKRAEKKGVPSSGFMKLFSGSDSYKFEEAADLCVQAATIYRLRKELNLAGDSFLKAADYQKKAGNEDEAGNTYVEAYKCFKSGGNSVNAVDSLENAIQIFTHRGQFRRGANFKFELGEILENDLHDYAKAIDCYELAGEWYAQDQSVALSNKCFIKCADLKALDGQYIEASDIYSKLIKSSMGNRLSQWSLKDYFLKKGLCQLAATDAVAAARTLQEGQSEDPNFADSRESNFLKSLIDAVNEGDSEQLSEHCKEFDNFMRLDKWKITILNKIKESIQQQEDDLL	soluble
ISGGSSISMMYKYCSRLPHDEFFQPKPEFQFKPVDEFGGTICRITLPANAPISEIESSLLPSTEAAKKDACLKAVHELHNLGVLNDFLLPDSKDEIEDELSD	soluble
IVGGYTCEENSLPYQVSLNSGSHFCGGSLISEQWVVSAAHCYKTRIQVRLGEHNIKVLEGNEQFINAAKIIRHPKYNRDTLDNDIMLIKLSSPAVINARVSTISLPTAPPAAGTECLISGWGNTLSFGADYPDELKCLDAPVLTQAECKASYPGKITNSMFCVGFLEGGKDSCQRDAGGPVVCNGQLQGVVSWGHGCAWKNRPGVYTKVYNYVDWIKDTIAANS	soluble
IYQMAGLNEDADRNLWLAAFRDPYGKNNLDIASLKKSIAQWAKTQGKTIAPEKVDAVLKDRTGSAVCLTCGKNGKMKMPLKSLAWIQGSSSYSQAEVIEQTEETNSAEISETRTPEVPDVHTPEAQPHLNTQSDGTPTAYTEPAADSSPQVETPDQAASEPVDVLFSIDVIRQGNLRLGN	not soluble
KAHGNFPVYRNTDVTFLPTGEAFFEKMKEELLKAKKYIFLEFFIIDEGIMWGEILSILEQKVEEGVEVRILYDGMIEITKLSFDYTKRLEKIGIKAKAFSPISPFISTYYNYRDHRKIVVIDGVVGMTGGVNLADEYINHIELFGHWKDSGIMLKGKAVDSFLLLFLQMWSITEEKMLVAPYLGVHDDLVENEGYVIPYGDSPLDTDKVGENV	not soluble
KCETKEKGAITAKELYTMMTDKNISLIIMDARRMQDYQDSCILHSLSVPEEAISPGVTASWIEAHLPDDSKDTWKKRGNVEYVVLLDWFSSAKDLQIGTTLRSLKDALFKWESKTVLRNEPLVLEGGYENWLLCYPQYTTNAKV	soluble
KDQIPIILIHGSGGNASSLDKMADQLMNEYRSSNEALTMTVNSEGKIKFEGKLTKDAKRPIIKFGFEQNQATPDDWSKWLKIAMEDLKSRYGFTQMDGVGHSNGGLALTYYAEDYAGDKTVPTLRKLVAIGSPFNDLDPNDNGMDLSFKKLPNSTPQMDYFIKNQTEVSPDLEVLAIAGELSEDNPTDGIVPTISSLATRLFMPGSAKAYIEDIQVGEDAVHQTLHETPKSIEKTYWFLEKFKTDETVIQLDYK	soluble
KEKIAILVDVQNVYYTCREAYRSNFDYNQFWYVATQEKEVVSAKAYAIASNDPKQRQFHHILRGVGFEVMLKPYIQRRDGSAKGDWDVGITLDAIEIAPDVDRVILVSGDGDFSLLVERIQQRYNKKVTVYGVPRLTSQTLIDCADNFVAIDDDFL	not soluble
KENGKRTEVKIGAKTSVMKEKDGKLFTGKANKETNKVDGANATEDADEGKGLVTAKDVIDAVNKTGWRIKTTDANGQNGDFATVASGTNVTFASGNGTTATVTNGTDGITVKYDAK	soluble
KEYSHLPIKGNESNLIDTLEDAISLRVPKNRPFAVALSGGLDSSIIAYILEARLSENAHYYVVGERYPDSVLALLEHLNICLSRVHLIKPPPADELLKLITKTCHITKSYNPSIISNGLATLLLCKAVHQDGIRVMLSGEGADEFFCGYQGMYNGRNDPTEMRANLIKDLHFTELRRLDLISASFSVEARCPFLDQRVTQIAMMLDVKNLCDIPMNIGKTLLRDTFKHLLPHSIINAPKESFDITSGLQKLVIDELQKEFKSERVALRTIFEKTLANY	not soluble
KFDGDDPVIPEWTQGGQIIPTMNLKVGDSVYTRVFDQSGENVAYRTELAISNDVLTQAKNWSYALASKINQEQTKLQAGQYSEDKFTPVYGTNPIYLQSNSGLERVEIGYNIETPVPDYSLTVDGLASEYIIGTEPTALDLTLTAEGDLTAELTVYNHHREPLASWTGSIQDGASEQVELTLSKSEPGHHMLVTRIKDTDGNLVDQQTLDFHLKSEEVTPPPSGEYDFVFPEGLSSYTAGTKVLASDGAIYQCKPFPYSGYCVQWSESATQFEPATGSHWEMAWDKLN	not soluble
KFGASQDVVKWQEVTSNLPELSKKLMSSSSEPLSDDEMADLTLALRTRLHYQPEDSTGWLLLGRIALANRDVTTAIDSMKKSYALEPKDPDVMLGYAQALMLSQDEMDQATARSLLGKLMQQDYVDLRVFSLLAFDAFERKDYPAAIKYWGIMQQMIGPDDSRYESLSRSIDHARKQMGEVVSPDKSVAVTINVAPEAQLDPNAVLIVSIHRADGSPMPVAAARYPLGSFPRTVVLDDGNAMMQGQKLSSLEKLIVRVRADSDGNVATRDQDWHGESDVVEFGQPVAVTIDKQYQ	not soluble
KGSYDLIFGDKNTKNYYAKFAKDHQTHLYQKIKESKDEQFRFVETQETTNNLGN	soluble
KGTVCVTNLSTGSKRLGAIAPNSTMLAVRNSADCLLALQQNHADAVISDDAILSGMIAQDPFTHIVGDPIATEQYAVAFAKPRTGRDTAPMIRQVNSTFERIFRDGTWTRTYNHWFGAYLAPQVHPAVHYREER	not soluble
KIIVKHVTVIGGGLMGAGIAQVAAATGHTVVLVDQTEDILAKSKKGIEESLRKVAKKKFAENPKAGDEFVAKTLSTIATSTDAASVVHSTDLVVEAIVENLKVKNELFKRLDKRAAEHTIFASNTSSLQITSIANATTRQDRFAGLHFFNPVPVMKLVEVIKTPMTSQKTFESLVDFSKALGKHPVSCKDTPGFIVNRLLVPYLMEAIRLYERGDASKEDIDTAMKLGAGYPMGPFELLDYVGLDTTKFIVDGWHEMDAENPLHQPSPSLNKLVAENKFGKKTGEGFYKYKAA	soluble
KILLEPTKVSFWGILRTPFMEQFGNGITPFSVGGQPMQILGLRQAGVSLGEGSSVSLMK	not soluble
KLVIAIVQDKDANYLSDQFIDQNVRATKLSTTGGFLQSGNTTFMIGIEEERVPEVLEIIKKASHTREEFMTPSVNMDVNMEGTTAYPIKVQVGGATVLVLPVDQFERF	not soluble
KPFNDEKTAKIAEEVQQFYESNATISLNEYLENVGELGYELYLTDGAEKSTYYGGAFRKKDLPDKTIKQVLDGETYHGIDSFDTGIFITGFFDNDVRNTIGVPVQADGKQLALFIRQDPEKQFGE	not soluble
KRAGTVCSNCQTSTTTLWRRSPMGDPVCNACGLYYKLHQVNRPLTMRKDGIQTRNRKVSSKGKKRR	soluble
KSEKRMKLTLKGGAAVDPDSGLEHSAHVLEKGGKVFSATLGLVDIVKGTNSYYKLQLLEDDKENRYWIFRSWGRVGTVIGSNKLEQMPSKEDAIEHFMKLYEEKTGNAWHSKNFTKYPKKFYPLEI	soluble
KSIVKIRNRMAAETQTLNFGPEWLRALSSGGSITSPPLSPALPKYKLADYRYGREEMLALFLKDNKIPSDLLDKEFLPILQEEPLPPLALVPFTEEEQRNFSMSVNSAAVLRLTGRGGGGTVVGAPRGRSSSRGRGRGRGECGFYQRSFDEVEGVFGRGGGREMHRSQSWEERGDRRFEKPGRKDVGKKNGYYCMYSPVLLLGQPLCQGRPNFEEGGPTSVGRKHEFIRSESENWRIFREEQNGEDEDGGWRLAGSRRDGERWRPHSPDGPRSAGWREHMERRRRFEFDFRDRDDERGYRRVRSGSGSIDDDRDSLPEWCLEDAEEEMGTFDSSGAFLSLKKVQKEPIPEEQEMDFRPVDEGEECSDSEGSHNEEAKEPDKTNKKEGEKTDRVGVASEETPQTSSSSARPGTPSDHQSQEASQFERKDEPKTEQTEKAEEETRMENSLPAKVPSRGDEMVADVQQPLSQIPSDTASPLLILPPPVPNPSPTLRPVETPVVGAPGMGSVSTEPDDEEGLKHLEQQAEKMVAYLQDSALDDERLASKLQEHRAKGVSIPLMHEAMQKWYYKDPQGEIQGPFNNQEMAEWFQAGYFTMSLLVKRACDESFQPLGDIMKMWGRVPFSPGPAPPPHMGELDQERLTRQQELTALYQMQHLQYQQFLIQQQYAQVLAQQQKAALSSQQQQQLALLLQQFQTLKMRISDQNIIPSVTRSVSVPDTGSIWELQPTASQPTVWEGGSVWDLPLDTTTPGPALEQLQQLEKAKAAKLEQERREAEMRAKREEEERKRQEELRRQQEEILRRQQEEERKRREEEELARRKQEEALRRQREQEIALRRQREEEERQQQEEALRRLEERRREEEERRKQEELLRKQEEEAAKWAREEEEAQRRLEENRLRMEEEAARLRHEEEERKRKELEVQRQKELMRQRQQQQEALRRLQQQQQQQQLAQMKLPSSSTWGQQSNTTACQSQATLSLAEIQKLEEERERQLREEQRRQQRELMKALQQQQQQQQQKLSGWGNVSKPSGTTKSLLEIQQEEARQMQKQQQQQQQHQQPNRARNNTHSNLHTSIGNSVWGSINTGPPNQWASDLVSSIWSNADTKNSNMGFWDDAVKEVGPRNSTNKNKNNASLSKSVGVSNRQNKKVEEEEKLLKLFQGVNKAQDGFTQWCEQMLHALNTANNLDVPTFVSFLKEVESPYEVHDYIRAYLGDTSEAKEFAKQFLERRAKQKANQQRQQQQLPQQQQQQPPQQPPQQPQQQDSVWGMNHSTLHSVFQTNQSNNQQSNFEAVQSGKKKKKQKMVRADPSLLGFSVNASSERLNMGEIETLDDY	soluble
KTKLNITMEEDTEVLDEVVVVGYGAQKKESVVGAISQVSSKELLKSPAANISQAIAGKISGVITSQTSGAPGADDMKIYIRGRASFAGDNQPLILVDGVEREFSQIAPDDIESISTLKDASATAVYGVRGANGVMLITTKRGKEQK	not soluble
KTMLKIKMAEDAEMIDEVVVTALGIKREEKALGYAVQKVGGSKLSTVKPVNIATSLTGKVAGLNVTNSTEFNTAPTLKLRGETPLLVVDGVPYSNISLNDIAADDIESVDVLKGATASALYGARGGSGAIMVTTKKGSQEG	not soluble
KVITRGEATRLINKEDAVVVDLRQRDDFRKGHIAGAINLLPSDIKANNVGELEKHKSQPIIVVDGSGMQAQEPASALNKAGFEKVFVLKEGIAGWSGENLPLVRG	soluble
KYRHEYYQKPEEVVVTVFAKGIPKQNVNIDFGEQILSVVIEVPGEDAYYLQPRLFGKIIPDKCKYEVLSTKIEICLAKADIITWASLEHG	soluble
LALQAKQYGDFDRYVLALSWQTGFCQSQHDRNRNERDECRLQTETTNKADFLTVHGLWPGLPKSVAARGVDERRWMRFGCATRPIPNLPEARASRMCSSPETGLSLETAAKLSEVMPGAGGRSCLERYEYAKHGACFGFDPDAYFGTMVRLNQEIKESEAGKFLADNYGKTVSRRDFDAAFAKSWGKENVKAVKLTCQGNPAYLTEIQISIKADAINAPLSANSFLPQPHPGNCGKTFVIDKAGY	soluble

Reference: the DeepSol protein solubility set
